Measured values as given in patent publication US20210032299A1.
Starred links: 1 amine or outer side, 2 acyl side, 3 side chain; linkers in the order of their positions; H or OH if unused. Non-standard residues stand in square brackets, D forms with d. Groups on a side chain read outwards from the residue. No end group written: not given here. *: point of attachment. C20 diacid = O=C(O)CCCCCCCCCCCCCCCCCCC(=O)*; C18 diacid = O=C(O)CCCCCCCCCCCCCCCCC(=O)*; γGlu = O=C(O)[C@H](CCC(=O)[*:2])N[*:1]; αMeL = CC(C)C[C@](C)(N)C(=O)O; Orn = NCCC[C@H](N)C(=O)O; AEEA = NCCOCCOCC(=O)O; Aib = CC(C)(N)C(=O)O

B1: Example 103 (peptide)
peptide: Y[Aib]EGTFISDYSI[αMeL]LD[Orn]IHQ[Aib]DFVEYK([AEEA-AEEA-γGlu-C18 diacid])LEGGPSSGAPPPS-NH2
modifications: N-terminus assumed
SMILES: CC[C@H](C)[C@H](NC(=O)[C@H](CCCN)NC(=O)[C@H](CC(=O)O)NC(=O)[C@H](CC(C)C)NC(=O)[C@](C)(CC(C)C)NC(=O)[C@@H](NC(=O)[C@H](CO)NC(=O)[C@H](Cc1ccc(O)cc1)NC(=O)[C@H](CC(=O)O)NC(=O)[C@H](CO)NC(=O)[C@@H](NC(=O)[C@H](Cc1ccccc1)NC(=O)[C@@H](NC(=O)CNC(=O)[C@H](CCC(=O)O)NC(=O)C(C)(C)NC(=O)[C@@H](N)Cc1ccc(O)cc1)[C@@H](C)O)[C@@H](C)CC)[C@@H](C)CC)C(=O)N[C@@H](Cc1c[nH]cn1)C(=O)N[C@@H](CCC(N)=O)C(=O)NC(C)(C)C(=O)N[C@@H](CC(=O)O)C(=O)N[C@@H](Cc1ccccc1)C(=O)N[C@H](C(=O)N[C@@H](CCC(=O)O)C(=O)N[C@@H](Cc1ccc(O)cc1)C(=O)N[C@@H](CCCCNC(=O)COCCOCCNC(=O)COCCOCCNC(=O)CC[C@H](NC(=O)CCCCCCCCCCCCCCCCC(=O)O)C(=O)O)C(=O)N[C@@H](CC(C)C)C(=O)N[C@@H](CCC(=O)O)C(=O)NCC(=O)NCC(=O)N1CCC[C@H]1C(=O)N[C@@H](CO)C(=O)N[C@@H](CO)C(=O)NCC(=O)N[C@@H](C)C(=O)N1CCC[C@H]1C(=O)N1CCC[C@H]1C(=O)N1CCC[C@H]1C(=O)N[C@@H](CO)C(N)=O)C(C)C
B2: Example 104 (peptide)
peptide: Y[Aib]EGTFISDYSI[αMeL]LD[Orn]IHQ[Aib]EFVEYK([AEEA-AEEA-γGlu-C20 diacid])LEAGPSSGAPPPS-NH2
modifications: N-terminus assumed
SMILES: CC[C@H](C)[C@H](NC(=O)[C@H](CCCN)NC(=O)[C@H](CC(=O)O)NC(=O)[C@H](CC(C)C)NC(=O)[C@](C)(CC(C)C)NC(=O)[C@@H](NC(=O)[C@H](CO)NC(=O)[C@H](Cc1ccc(O)cc1)NC(=O)[C@H](CC(=O)O)NC(=O)[C@H](CO)NC(=O)[C@@H](NC(=O)[C@H](Cc1ccccc1)NC(=O)[C@@H](NC(=O)CNC(=O)[C@H](CCC(=O)O)NC(=O)C(C)(C)NC(=O)[C@@H](N)Cc1ccc(O)cc1)[C@@H](C)O)[C@@H](C)CC)[C@@H](C)CC)C(=O)N[C@@H](Cc1c[nH]cn1)C(=O)N[C@@H](CCC(N)=O)C(=O)NC(C)(C)C(=O)N[C@@H](CCC(=O)O)C(=O)N[C@@H](Cc1ccccc1)C(=O)N[C@H](C(=O)N[C@@H](CCC(=O)O)C(=O)N[C@@H](Cc1ccc(O)cc1)C(=O)N[C@@H](CCCCNC(=O)COCCOCCNC(=O)COCCOCCNC(=O)CC[C@H](NC(=O)CCCCCCCCCCCCCCCCCCC(=O)O)C(=O)O)C(=O)N[C@@H](CC(C)C)C(=O)N[C@@H](CCC(=O)O)C(=O)N[C@@H](C)C(=O)NCC(=O)N1CCC[C@H]1C(=O)N[C@@H](CO)C(=O)N[C@@H](CO)C(=O)NCC(=O)N[C@@H](C)C(=O)N1CCC[C@H]1C(=O)N1CCC[C@H]1C(=O)N1CCC[C@H]1C(=O)N[C@@H](CO)C(N)=O)C(C)C
B3: Example 102 (peptide)
peptide: Y[Aib]EGTFISDYSI[αMeL]LD[Orn]IHQ[Aib]EFV[dE]YK([AEEA-AEEA-γGlu-C20 diacid])LEGGPSSGAPPPS-NH2
modifications: N-terminus assumed
SMILES: CC[C@H](C)[C@H](NC(=O)[C@H](CCCN)NC(=O)[C@H](CC(=O)O)NC(=O)[C@H](CC(C)C)NC(=O)[C@](C)(CC(C)C)NC(=O)[C@@H](NC(=O)[C@H](CO)NC(=O)[C@H](Cc1ccc(O)cc1)NC(=O)[C@H](CC(=O)O)NC(=O)[C@H](CO)NC(=O)[C@@H](NC(=O)[C@H](Cc1ccccc1)NC(=O)[C@@H](NC(=O)CNC(=O)[C@H](CCC(=O)O)NC(=O)C(C)(C)NC(=O)[C@@H](N)Cc1ccc(O)cc1)[C@@H](C)O)[C@@H](C)CC)[C@@H](C)CC)C(=O)N[C@@H](Cc1c[nH]cn1)C(=O)N[C@@H](CCC(N)=O)C(=O)NC(C)(C)C(=O)N[C@@H](CCC(=O)O)C(=O)N[C@@H](Cc1ccccc1)C(=O)N[C@H](C(=O)N[C@H](CCC(=O)O)C(=O)N[C@@H](Cc1ccc(O)cc1)C(=O)N[C@@H](CCCCNC(=O)COCCOCCNC(=O)COCCOCCNC(=O)CC[C@H](NC(=O)CCCCCCCCCCCCCCCCCCC(=O)O)C(=O)O)C(=O)N[C@@H](CC(C)C)C(=O)N[C@@H](CCC(=O)O)C(=O)NCC(=O)NCC(=O)N1CCC[C@H]1C(=O)N[C@@H](CO)C(=O)N[C@@H](CO)C(=O)NCC(=O)N[C@@H](C)C(=O)N1CCC[C@H]1C(=O)N1CCC[C@H]1C(=O)N1CCC[C@H]1C(=O)N[C@@H](CO)C(N)=O)C(C)C
B4: Example 105 (peptide)
peptide: Y[Aib]EGTFISDYSI[αMeL]LD[Orn]IHQ[Aib]EFVEYK([AEEA-AEEA-γGlu-C20 diacid])LETGPSSGAPPPS-NH2
modifications: N-terminus assumed
SMILES: CC[C@H](C)[C@H](NC(=O)[C@H](CCCN)NC(=O)[C@H](CC(=O)O)NC(=O)[C@H](CC(C)C)NC(=O)[C@](C)(CC(C)C)NC(=O)[C@@H](NC(=O)[C@H](CO)NC(=O)[C@H](Cc1ccc(O)cc1)NC(=O)[C@H](CC(=O)O)NC(=O)[C@H](CO)NC(=O)[C@@H](NC(=O)[C@H](Cc1ccccc1)NC(=O)[C@@H](NC(=O)CNC(=O)[C@H](CCC(=O)O)NC(=O)C(C)(C)NC(=O)[C@@H](N)Cc1ccc(O)cc1)[C@@H](C)O)[C@@H](C)CC)[C@@H](C)CC)C(=O)N[C@@H](Cc1c[nH]cn1)C(=O)N[C@@H](CCC(N)=O)C(=O)NC(C)(C)C(=O)N[C@@H](CCC(=O)O)C(=O)N[C@@H](Cc1ccccc1)C(=O)N[C@H](C(=O)N[C@@H](CCC(=O)O)C(=O)N[C@@H](Cc1ccc(O)cc1)C(=O)N[C@@H](CCCCNC(=O)COCCOCCNC(=O)COCCOCCNC(=O)CC[C@H](NC(=O)CCCCCCCCCCCCCCCCCCC(=O)O)C(=O)O)C(=O)N[C@@H](CC(C)C)C(=O)N[C@@H](CCC(=O)O)C(=O)N[C@H](C(=O)NCC(=O)N1CCC[C@H]1C(=O)N[C@@H](CO)C(=O)N[C@@H](CO)C(=O)NCC(=O)N[C@@H](C)C(=O)N1CCC[C@H]1C(=O)N1CCC[C@H]1C(=O)N1CCC[C@H]1C(=O)N[C@@H](CO)C(N)=O)[C@@H](C)O)C(C)C
B5: Example 96 (peptide)
peptide: Y[Aib]EGTFISDYSIALDKIHQ[Aib]EFVNYK([AEEA-AEEA-γGlu-C20 diacid])LAGGPSSGAPPPS-NH2
modifications: N-terminus assumed
SMILES: CC[C@H](C)[C@H](NC(=O)[C@H](CO)NC(=O)[C@H](Cc1ccc(O)cc1)NC(=O)[C@H](CC(=O)O)NC(=O)[C@H](CO)NC(=O)[C@@H](NC(=O)[C@H](Cc1ccccc1)NC(=O)[C@@H](NC(=O)CNC(=O)[C@H](CCC(=O)O)NC(=O)C(C)(C)NC(=O)[C@@H](N)Cc1ccc(O)cc1)[C@@H](C)O)[C@@H](C)CC)C(=O)N[C@@H](C)C(=O)N[C@@H](CC(C)C)C(=O)N[C@@H](CC(=O)O)C(=O)N[C@@H](CCCCN)C(=O)N[C@H](C(=O)N[C@@H](Cc1c[nH]cn1)C(=O)N[C@@H](CCC(N)=O)C(=O)NC(C)(C)C(=O)N[C@@H](CCC(=O)O)C(=O)N[C@@H](Cc1ccccc1)C(=O)N[C@H](C(=O)N[C@@H](CC(N)=O)C(=O)N[C@@H](Cc1ccc(O)cc1)C(=O)N[C@@H](CCCCNC(=O)COCCOCCNC(=O)COCCOCCNC(=O)CC[C@H](NC(=O)CCCCCCCCCCCCCCCCCCC(=O)O)C(=O)O)C(=O)N[C@@H](CC(C)C)C(=O)N[C@@H](C)C(=O)NCC(=O)NCC(=O)N1CCC[C@H]1C(=O)N[C@@H](CO)C(=O)N[C@@H](CO)C(=O)NCC(=O)N[C@@H](C)C(=O)N1CCC[C@H]1C(=O)N1CCC[C@H]1C(=O)N1CCC[C@H]1C(=O)N[C@@H](CO)C(N)=O)C(C)C)[C@@H](C)CC
B6: Example 7 (peptide)
peptide: Y[Aib]EGTFISDYSI[αMeL]LD[Orn]IHQ[Aib]EFV[dE]YK([AEEA-AEEA-γGlu-C18 diacid])LEGGPSSGAPPPS-NH2
modifications: N-terminus assumed
SMILES: CC[C@H](C)[C@H](NC(=O)[C@H](CCCN)NC(=O)[C@H](CC(=O)O)NC(=O)[C@H](CC(C)C)NC(=O)[C@](C)(CC(C)C)NC(=O)[C@@H](NC(=O)[C@H](CO)NC(=O)[C@H](Cc1ccc(O)cc1)NC(=O)[C@H](CC(=O)O)NC(=O)[C@H](CO)NC(=O)[C@@H](NC(=O)[C@H](Cc1ccccc1)NC(=O)[C@@H](NC(=O)CNC(=O)[C@H](CCC(=O)O)NC(=O)C(C)(C)NC(=O)[C@@H](N)Cc1ccc(O)cc1)[C@@H](C)O)[C@@H](C)CC)[C@@H](C)CC)C(=O)N[C@@H](Cc1c[nH]cn1)C(=O)N[C@@H](CCC(N)=O)C(=O)NC(C)(C)C(=O)N[C@@H](CCC(=O)O)C(=O)N[C@@H](Cc1ccccc1)C(=O)N[C@H](C(=O)N[C@H](CCC(=O)O)C(=O)N[C@@H](Cc1ccc(O)cc1)C(=O)N[C@@H](CCCCNC(=O)COCCOCCNC(=O)COCCOCCNC(=O)CC[C@H](NC(=O)CCCCCCCCCCCCCCCCC(=O)O)C(=O)O)C(=O)N[C@@H](CC(C)C)C(=O)N[C@@H](CCC(=O)O)C(=O)NCC(=O)NCC(=O)N1CCC[C@H]1C(=O)N[C@@H](CO)C(=O)N[C@@H](CO)C(=O)NCC(=O)N[C@@H](C)C(=O)N1CCC[C@H]1C(=O)N1CCC[C@H]1C(=O)N1CCC[C@H]1C(=O)N[C@@H](CO)C(N)=O)C(C)C

Biological target: T1, human glucose-dependent insulinotropic polypeptide (GIP) receptor (human), P48546
T1 chain: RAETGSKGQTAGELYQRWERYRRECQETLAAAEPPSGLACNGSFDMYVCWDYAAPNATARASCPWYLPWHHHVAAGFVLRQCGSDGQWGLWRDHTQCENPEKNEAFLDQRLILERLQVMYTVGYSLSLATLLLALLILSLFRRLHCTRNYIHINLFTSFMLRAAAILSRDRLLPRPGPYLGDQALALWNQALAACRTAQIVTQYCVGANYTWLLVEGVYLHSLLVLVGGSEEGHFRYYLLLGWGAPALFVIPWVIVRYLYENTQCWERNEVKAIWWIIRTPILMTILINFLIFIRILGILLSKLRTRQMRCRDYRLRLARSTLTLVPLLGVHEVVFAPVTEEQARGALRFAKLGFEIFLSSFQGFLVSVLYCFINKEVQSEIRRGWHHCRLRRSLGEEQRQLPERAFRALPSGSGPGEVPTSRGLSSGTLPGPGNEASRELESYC
Experiment: SPA, displacement of [125I]-GIP from hGIPR membranes, 0.1% bacitracin

Binder | Ki
Y[Aib]EGTFISDYSI[αMeL]LD[Orn]IHQ[Aib]DFV[dE]YK([AEEA-AEEA-γGlu-C20 diacid])LEGGPSSGAPPPS-NH2 [Example 101] | 0.139 nM
B1 | 0.0405 nM
B2 | 0.134 nM
B3 | 0.164 nM
B4 | 0.174 nM
B5 | 0.232 nM
B6 | 0.193 nM
